Measured values: patent US20160002321A1 (HER MAJESTY THE QUEEN IN RIGHT OF CANADA AS REPRESENTED BY …, published 2016)

Assays:
[1] = biological target: recombinant anthrax protective antigen (rPA) (Bacillus anthracis, UniProt P13423 30-764); assay: SPR, Biacore 2000, rPA on a CM5 chip, MAb in solution
[2] = biological target: T1, recombinant lethal factor (rLF) (Bacillus anthracis, UniProt P15917 34-809); assay: Western immunoblot, 2 µg denatured protein
T1 sequence: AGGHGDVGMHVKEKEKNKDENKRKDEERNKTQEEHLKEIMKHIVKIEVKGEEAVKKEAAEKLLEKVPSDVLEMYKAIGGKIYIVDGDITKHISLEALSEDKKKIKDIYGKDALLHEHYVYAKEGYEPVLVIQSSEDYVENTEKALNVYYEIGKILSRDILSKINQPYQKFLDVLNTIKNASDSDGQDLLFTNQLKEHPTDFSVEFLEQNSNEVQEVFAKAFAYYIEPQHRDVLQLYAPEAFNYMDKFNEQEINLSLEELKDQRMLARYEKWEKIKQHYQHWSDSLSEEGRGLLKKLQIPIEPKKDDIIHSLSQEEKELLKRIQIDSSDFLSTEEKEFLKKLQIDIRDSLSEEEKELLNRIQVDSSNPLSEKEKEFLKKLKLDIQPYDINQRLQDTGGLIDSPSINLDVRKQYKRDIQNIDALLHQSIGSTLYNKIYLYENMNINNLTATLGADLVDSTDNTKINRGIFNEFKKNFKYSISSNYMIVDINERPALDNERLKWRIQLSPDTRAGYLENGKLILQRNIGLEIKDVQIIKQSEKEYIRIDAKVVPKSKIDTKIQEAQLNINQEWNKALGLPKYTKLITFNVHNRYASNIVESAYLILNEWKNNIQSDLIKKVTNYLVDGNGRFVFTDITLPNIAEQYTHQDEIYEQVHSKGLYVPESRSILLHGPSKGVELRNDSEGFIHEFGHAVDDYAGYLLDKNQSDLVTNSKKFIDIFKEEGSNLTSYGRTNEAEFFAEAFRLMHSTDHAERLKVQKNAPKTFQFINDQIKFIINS

[3] = biological target: chymotrypsin digested rPA (47 and 37 kDa fragments) (Bacillus anthracis, UniProt P13423 30-343; P13423 344-764); assay: Western immunoblot of chymotrypsin digested rPA
Sequence of chymotrypsin digested rPA (47 and 37 kDa fragments) (P13423 30-343 limits assumed, chain 1 of 2): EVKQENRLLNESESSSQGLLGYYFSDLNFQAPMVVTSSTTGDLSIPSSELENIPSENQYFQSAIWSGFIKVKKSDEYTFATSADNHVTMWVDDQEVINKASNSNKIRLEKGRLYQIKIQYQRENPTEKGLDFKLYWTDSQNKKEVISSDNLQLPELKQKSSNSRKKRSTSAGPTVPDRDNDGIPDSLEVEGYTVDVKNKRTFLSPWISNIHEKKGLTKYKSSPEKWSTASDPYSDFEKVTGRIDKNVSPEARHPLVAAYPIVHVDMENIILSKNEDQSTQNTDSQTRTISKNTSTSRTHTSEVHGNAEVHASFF
Sequence of chymotrypsin digested rPA (47 and 37 kDa fragments) (P13423 344-764 limits assumed, chain 2 of 2): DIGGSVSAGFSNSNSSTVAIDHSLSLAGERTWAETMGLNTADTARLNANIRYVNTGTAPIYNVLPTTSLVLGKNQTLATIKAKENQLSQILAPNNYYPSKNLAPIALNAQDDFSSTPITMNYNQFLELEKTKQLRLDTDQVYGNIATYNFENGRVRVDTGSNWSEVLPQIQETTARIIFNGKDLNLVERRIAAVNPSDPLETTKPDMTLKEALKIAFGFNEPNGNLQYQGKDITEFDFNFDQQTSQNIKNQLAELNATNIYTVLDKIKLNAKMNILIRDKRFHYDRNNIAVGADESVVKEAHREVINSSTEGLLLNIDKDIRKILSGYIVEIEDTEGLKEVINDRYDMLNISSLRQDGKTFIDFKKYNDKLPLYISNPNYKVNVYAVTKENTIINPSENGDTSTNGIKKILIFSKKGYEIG

[4] = biological target: bovine serum albumin (BSA) (bovine, UniProt P02769 25-607); assay: endpoint ELISA, antigen coated at 100 ng/well
Sequence of bovine serum albumin (BSA) (P02769 25-607 limits assumed): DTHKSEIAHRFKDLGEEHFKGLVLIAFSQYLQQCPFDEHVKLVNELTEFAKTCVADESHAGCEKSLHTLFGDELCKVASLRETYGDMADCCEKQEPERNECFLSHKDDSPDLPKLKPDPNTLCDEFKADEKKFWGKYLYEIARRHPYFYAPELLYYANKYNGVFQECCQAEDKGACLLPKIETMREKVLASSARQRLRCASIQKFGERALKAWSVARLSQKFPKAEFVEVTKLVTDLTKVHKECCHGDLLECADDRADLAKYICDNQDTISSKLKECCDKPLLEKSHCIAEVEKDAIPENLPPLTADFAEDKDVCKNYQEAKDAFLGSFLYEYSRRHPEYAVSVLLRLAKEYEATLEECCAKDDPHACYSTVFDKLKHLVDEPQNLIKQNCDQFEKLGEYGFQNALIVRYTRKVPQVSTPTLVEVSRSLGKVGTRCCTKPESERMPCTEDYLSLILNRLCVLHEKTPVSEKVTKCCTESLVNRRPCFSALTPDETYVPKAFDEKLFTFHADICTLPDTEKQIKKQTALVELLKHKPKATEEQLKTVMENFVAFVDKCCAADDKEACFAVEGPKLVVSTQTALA

Sequence of recombinant anthrax protective antigen (rPA) (P13423 30-764): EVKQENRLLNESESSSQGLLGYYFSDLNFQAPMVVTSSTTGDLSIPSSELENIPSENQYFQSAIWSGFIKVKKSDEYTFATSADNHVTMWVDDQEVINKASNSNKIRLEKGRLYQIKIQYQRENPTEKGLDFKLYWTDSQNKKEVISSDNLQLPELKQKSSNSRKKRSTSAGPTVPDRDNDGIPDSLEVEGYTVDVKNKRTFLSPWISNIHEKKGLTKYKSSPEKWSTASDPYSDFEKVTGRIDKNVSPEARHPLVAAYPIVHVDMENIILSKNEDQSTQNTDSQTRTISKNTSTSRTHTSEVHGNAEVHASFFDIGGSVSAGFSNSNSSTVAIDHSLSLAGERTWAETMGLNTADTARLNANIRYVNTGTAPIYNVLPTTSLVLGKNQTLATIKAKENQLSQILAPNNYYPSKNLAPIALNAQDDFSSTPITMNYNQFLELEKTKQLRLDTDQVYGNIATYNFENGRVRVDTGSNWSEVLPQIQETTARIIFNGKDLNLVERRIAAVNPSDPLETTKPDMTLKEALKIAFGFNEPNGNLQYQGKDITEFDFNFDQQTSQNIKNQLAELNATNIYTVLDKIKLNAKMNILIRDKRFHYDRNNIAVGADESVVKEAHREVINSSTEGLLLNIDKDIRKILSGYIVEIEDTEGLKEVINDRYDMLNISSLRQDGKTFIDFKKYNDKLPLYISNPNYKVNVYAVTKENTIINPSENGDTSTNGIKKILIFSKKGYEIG

B1: F20G77 (antibody)
chain 1: EVQLEESGPELVSPGVSVKISCEGSGYTFTDYAMHWVKQSHARGLEWIGVIGSYSGNAHHNLNFKDKATMTVDKSSSTAYMELARLTSDDSAIYYCAY
chain 2: ELVMTQSPLSLPVSLGDQASISCRSSQSIIHSNGDTFLEWFLQKPGQSPKLLIYKVSNRFSGVPDRFSGSGSGTDFTLKISRVEAEDLGVYYCFQGSHVPLTFGAGTKLELK
[1]
  Kd: 0.46 nM
  koff: 1.4e-06 s⁻¹
  kon: 3100 M⁻¹ s⁻¹

B2: F20G76 (antibody, V domains shown)
VH: EVQLEESGPELVKPGASVKVSCKASGYSFTDYNMYWVKQSHGTSLEWIGVIDPNNGVTSYNQKFKDKATLTADKSSSTAFMHLNSLTSEDSAVYYCSRGGLDYWGQGTTLTVSS
VL: ELVMTQSPLSLPVSLGDQASISCRSSQSIIHSNGDTFLEWFLQKPGQSPKLLIYKVSNRFSGVPDRFSGSGSGTDFTLKISRVEAEDLGVYYCFQGSHVPLTFGAGTKLELKR
[2]
  binding result: no binding
[1]
  Kd: 18.5 nM
  koff: 6.8e-05 s⁻¹
  kon: 4000 M⁻¹ s⁻¹
[3]
  binding result: no binding
[4]
  binding result: no binding
